Results reported in patent publication US20010010923A1, “MODIFIED CARBOXYPEPTIDASE” (priority 1997, published 2001).
Changes are numbered by the printed parent chain. In names and notes the source's numbering stands.

What was measured:
Type in all cases: biochemical
[1] = Transpeptidation of Bz-G-A-R-A-R-A-OH (arginine at P1) with H-Leu-NH2, Table 1; conditions: 2mM substrate, pH 7.5, [E] 0.1 mg/mL
Experimental: The mutant carboxypeptidase enzvmes used in these studies were produced by site-directed mutagenesis, essentially following the procedures described in published PCT Patent Application No. WO 95/20039. In general, oligonucleotides synthesized to encode the amino acid substitution were used to produce the mutant enzymes.
(§1) Transamidation reactions were carried out generally as described in PCT Application WO 95/20039. In general, the method included dissolving the nucleophile (H-Leu-NH2, unless otherwise indicated) in 50 mM HEPES, 5 mM EDTA and adjusting the pH to 7.5, 5 μl of peptide substrate (8 mM Bz-G-A-R-A-R-A-OH, unless otherwise indicated, in methanol) was added to 190 μl nucleophile solution followed by 5 μl enzyme, […]
(§2) During the reaction, 20 μl aliquots were removed from the reaction mixture and added to 50 μl 1% trifluoroacetic acid to quench the reaction. The reactant composition was determined by HPLC using a Waters HPLC equipped with a C-18 Waters Novapac 4μ reverse phase column and various gradients of acetonitrile in 0.1% trifluoroacetic acid. The separation was monitored at 254 nm allowing the direct quantification of the products from the integrated peak areas. The composition of the reaction mixture was determined at least twvice during the reaction, the first when 20-50% (preferably 35%) of the substrate had been consumed in the reaction and the second time when 50-90% (preferably 80%) of the peptide substrate had been consumed.
The reaction products were collected and identified by amino acid analysis after acid hydrolysis using a Pharmacia Alpha Plus analyzer. Further identification was obtained by co-chromatography of authentic standard compounds.
(§3) The fraction of aminolysis (fa) was expressed as the ratio between the formed aminolysis product and the sum of all products formed. Unconsumed substrate was disregarded in the calculations.

[2] = Transamidation of FA-Arg-Ala-OH, Table 6; conditions: H-Leu-NH2 375 mM, pH 7.5, [E] 0.1 mg/mL
[3] = Transpeptidation of Bz-G-A-R-A-R-X-OH at pH 7.5 at 50% substrate consumption, Table 4; design: key to fa: fraction: aminolysis product / sum of all products formed; conditions: for Pmax (peak product yield) / fa: 375 mM H-Leu-NH2; for fa / t: 50% substrate consumption; for t: 375 mM H-Leu-NH2, 2 mM substrate, [E] 0.1 mg/mL
Experimental: (§4) Transamidation reactions were carried out generally as described in PCT Application WO 95/20039. In general, the method included dissolving the nucleophile (H-Leu-NH2, unless otherwise indicated) in 50 mM HEPES, 5 mM EDTA and adjusting the pH to 7.5, 5 μl of peptide substrate (8 mM Bz-G-A-R-A-R-A-OH, unless otherwise indicated, in methanol) was added to 190 μl nucleophile solution followed by 5 μl enzyme, resulting in a substrate concentration of 0.2 mM.
as §2, §3
Site specific mutagenesis was performed as described for Example 1 to generate the specific mutants described below. Transamidation reactions were performed as described for Examples 1.

[4] = Transpeptidation of Bz-G-A-R-A-R-X-OH at pH 6.5 at 50% substrate consumption, Table 5; design: key to fa: fa = aminolysis product / sum of all products formed; conditions: for Pmax (peak product yield) / fa: 750 mM H-Leu-NH2; for fa / t: 50% substrate consumption; for t: 750 mM H-Leu-NH2, 2 mM substrate, [E] 0.1 mg/mL
Experimental: as §4, with “[…],” for “5 mM EDTA and adjusting the pH to 7.5,”
as §2
The fraction of aminolysis (fa) was expressed as the ratio between the formed aminolysis product and the sum of all products formed. Unconsumed substrate was disregarded in the calculations. […]

[5] = Transamidation of Bz-G-A-R-A-R-A-OH, Table 6; conditions: [S] = 2 mM; H-Leu-NH2 375 mM; pH 7.5; [E] 0.1 mg/mL
[6] = Transamidation of Bz-G-A-R-A-R-A-OH, Table 6; conditions: H-Leu-NH2 375 mM, pH 7.5, [E] 0.1 mg/mL
Experimental: as §1, §2, §3
Site specific mutagenesis was performed as described for Example 1 to generate the specific mutants described below. Transamidation reactions were performed as described in the previous examples.

B1: L178S: carboxypeptidase Y S1 mutant, substitution L178S (protein, UniProt P00729 112-532, looked up, variant L178S)
Carboxypeptidase Y: KIKDPKILGIDPNVTQYTGYLDVEDEDKHFFFWTFESRNDPAKDPVILWLNGGPGCSSLTGLFFELGPSSIGPDLKPIGNPYSWNSNATVIFLDQPVNVGFSYSGSSGVSNTVAAGKDVYNFLELFFDQFPEYVNKGQDFHIAGESYAGHYIPVFASEILSHKDRNFNLTSVLIGNGSTDPLTQYNYYEPMACGEGGEPSVLPSEECSAMEDSLERCLGLIESCYDSQSVWSCVPATIYCNNAQLAPYQRTGRNVYDIRKDCEGGNLCYPTLQDIDDYLNQDYVKEAVGAEVDHYESCNFDINRNFLFAGDWMKPYHTAVTDLLNQDLPILVYAGDKDFICNWLGNKAWTDVLPWKYDEEFASQKVRNWTASITDEVAGEVKSYKHFTYLRVFNGGHMVPFDVPENALSMVNEWIHGGFSL
fa (fraction of aminolysis) ([1]; [N] 375 mM H-Leu-NH2): 0.72
Pmax ([2]; [S] = 2 mM): 0.76
fa ([2]; [S] = 2 mM): 0.89
Pmax (peak product yield) ([3]; leaving group A): 0.63
fa ([3]; leaving group A): 0.73
t ([3]; leaving group A): 14 min
Pmax (peak product yield) ([3]; leaving group I): 0
fa ([3]; leaving group I): 0
t ([3]; leaving group I): 26 min
Pmax (peak product yield) ([3]; leaving group L): 0.01
fa ([3]; leaving group L): 0.01
t ([3]; leaving group L): 2.1 min
Pmax (peak product yield) ([3]; leaving group M): 0
fa ([3]; leaving group M): 0
t ([3]; leaving group M): 28 min
Pmax (peak product yield) ([3]; leaving group S): 0.38
fa ([3]; leaving group S): 0.65
t ([3]; leaving group S): 790 min
Pmax (peak product yield) ([3]; leaving group V): 0
fa ([3]; leaving group V): 0
t ([3]; leaving group V): 40 min
Pmax (peak product yield) ([4]; leaving group A): 0.74
fa ([4]; leaving group A): 0.79
t ([4]; leaving group A): 34 min
Pmax (peak product yield) ([4]; leaving group L): 0.03
fa ([4]; leaving group L): 0.03
t ([4]; leaving group L): 17 min
Pmax (peak product yield) ([4]; leaving group S): 0.63
fa ([4]; leaving group S): 0.34
t ([4]; leaving group S): 108 min
fa [5]: 0.77
Pmax ([6]; [S] = 2 mM): 0.61

B2: N241D + W312L: carboxypeptidase Y mutant N241D + W312L (protein, UniProt P00729 112-532, looked up, variant N241D W312L)
Carboxypeptidase Y: B1 Carboxypeptidase Y with S178L, N241D, W312L
Pmax ([2]; [S] = 2 mM): 0.37
fa ([2]; [S] = 2 mM): 0.50
fa [5]: 0.05
Pmax ([6]; [S] = 2 mM): 0.05

B3: W312D: carboxypeptidase Y S1 mutant, substitution W312D (protein, UniProt P00729 112-532, looked up, variant W312D)
Carboxypeptidase Y: B1 Carboxypeptidase Y with S178L, W312D
fa (fraction of aminolysis) ([1]; [N] 375 mM H-Leu-NH2): 0.15
Pmax ([2]; [S] = 2 mM): 0.67
fa ([2]; [S] = 2 mM): 0.77
fa [5]: 0.16
Pmax ([6]; [S] = 2 mM): 0.08

B4: L178S + M398L: carboxypeptidase Y mutant L178S + M398L (S1 and S1' subsites) (protein, UniProt P00729 112-532, looked up, variant L178S M398L)
Carboxypeptidase Y: B1 Carboxypeptidase Y with M398L
Pmax ([2]; [S] = 2 mM): 0.90
fa ([2]; [S] = 2 mM): .99
Pmax (peak product yield) ([3]; leaving group A): >0.48
fa ([3]; leaving group A): 0.77
t ([3]; leaving group A): 41 min
fa ([3]; leaving group I): 0.54
t ([3]; leaving group I): 33 min
Pmax (peak product yield) ([3]; leaving group L): >0.39
fa ([3]; leaving group L): 0.39
t ([3]; leaving group L): 1 min
fa ([3]; leaving group M): 0.17
t ([3]; leaving group M): 17 min
fa ([3]; leaving group V): 0.45
t ([3]; leaving group V): 30 min
Pmax (peak product yield) ([4]; leaving group A): 0.48
fa ([4]; leaving group A): 0.92
t ([4]; leaving group A): 53 min
Pmax (peak product yield) ([4]; leaving group L): 0.54
fa ([4]; leaving group L): 0.54
t ([4]; leaving group L): 19 min
fa [5]: 0.91

B5: N241D + W312F: carboxypeptidase Y mutant N241D + W312F (protein, UniProt P00729 112-532, looked up, variant N241D W312F)
Carboxypeptidase Y: B1 Carboxypeptidase Y with S178L, N241D, W312F
Pmax ([2]; [S] = 2 mM): 0.58
fa ([2]; [S] = 2 mM): 0.70
fa [5]: 0.24
Pmax ([6]; [S] = 2 mM): 0.17

B6: N241D: carboxypeptidase Y mutant, substitution N241D (protein, UniProt P00729 112-532, looked up, variant N241D)
Carboxypeptidase Y: B1 Carboxypeptidase Y with S178L, N241D
Pmax ([2]; [S] = 2 mM): 0.56
fa ([2]; [S] = 2 mM): 0.85
fa [5]: 0.15
Pmax ([6]; [S] = 2 mM): 0.09

B7: L245E: carboxypeptidase Y S1 mutant, substitution L245E (protein, UniProt P00729 112-532, looked up, variant L245E)
Carboxypeptidase Y: B1 Carboxypeptidase Y with S178L, L245E
fa (fraction of aminolysis) ([1]; [N] 50 mM H-Leu-NH2): 0.07
fa (fraction of aminolysis) ([1]; [N] 375 mM H-Leu-NH2): 0.18
Pmax ([2]; [S] = 2 mM): 0.73
fa ([2]; [S] = 2 mM): 0.83
fa [5]: 0.20
Pmax ([6]; [S] = 2 mM): 0.09

B8: N241D + W312A: carboxypeptidase Y mutant N241D + W312A (protein, UniProt P00729 112-532, looked up, variant N241D W312A)
Carboxypeptidase Y: B1 Carboxypeptidase Y with S178L, N241D, W312A
Pmax ([2]; [S] = 2 mM): 0.72
fa ([2]; [S] = 2 mM): 0.80
fa [5]: 0.28
Pmax ([6]; [S] = 2 mM): 0.20

B9: N241D + W312N: carboxypeptidase Y mutant N241D + W312N (protein, UniProt P00729 112-532, looked up, variant N241D W312N)
Carboxypeptidase Y: B1 Carboxypeptidase Y with S178L, N241D, W312N
Pmax ([2]; [S] = 2 mM): 0.58
fa ([2]; [S] = 2 mM): 0.74
fa [5]: 0.17
Pmax ([6]; [S] = 2 mM): 0.13

B10: N241E: carboxypeptidase Y S1 mutant, substitution N241E (protein, UniProt P00729 112-532, looked up, variant N241E)
Carboxypeptidase Y: B1 Carboxypeptidase Y with S178L, N241E
fa (fraction of aminolysis) ([1]; [N] 50 mM H-Leu-NH2): 0.27
Pmax ([2]; [S] = 0.2 mM): 0.49
fa ([2]; [S] = 0.2 mM): 0.70
fa ([2]; [S] = 2 mM): 0.92
fa [5]: 0.47
Pmax ([6]; [S] = 0.2 mM): 0.25
fa ([6]; [S] = 0.2 mM): 0.43
Pmax ([6]; [S] = 2 mM): 0.25
